Measured values taken from the supplement of paper PMC10126150.
± gives the standard deviation of the averaged measurements.

System: ATP
Assay: switch fluorescence ratio, 500 uM ATP over buffer (Cy3 cluster intensity, sum of 5 cycles each) (fold (ratio)); higher = stronger signal-on switching upon ATP binding; sequences stand for … in TCGTCGGCAGCGTCAGATGTGTATAAGAGACAGTTTTTTTTTTTTTTTTTTTTTTTTT…TC
Settings: aptamer strand: ATP DNA aptamer (quencher-CACCTGGGGGAGTATTGCGGAGGAAGG + anchor), 100 nM annealed; ATP concentration: 500 uM
Procedure, shortened: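 Per cluster, summed Cy3 intensity from the target cycles was divided by that from the buffer cycles to give the fluorescence ratio, then averaged per switch-domain sequence. Clusters outside 100-1000 RFU were excluded. The Cy3-labelled switching-strand clusters, on a modified Illumina MiSeq flow-cell, were annealed to 100 nM quencher-labelled ATP aptamer and imaged in selection buffer, then after 15 min with 500 uM ATP at 22 °C, for five cycles with NaOH stripping and re-annealing between them.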
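Also: ATP exposure 15 min at 22 °C before imaging.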

| Sequence | switch fluorescence ratio |
| --- | --- |
| ATATTGAAGG | 0.981 ± 0.012 |
| ATATTGACAC | 1.08 ± 0.012 |
| ATATTGGCTA | 1 ± 0.0039 |
| ATATTTAAGG | 0.995 ± 0.029 |
| ATATTTACCG | 1.04 ± 0.011 |
| ATATTTAGAG | 0.992 ± 0.027 |
| ATATTTAGTT | 1.01 ± 0.051 |
| ATATTTGCCA | 1.02 ± 0.021 |
| ATATTTTTT | 0.9892 ± 0.0038 |
| ATCAAAACGT | 1.04 ± 0.043 |
| ATCAAAGGTG | 1.404 ± 0.0027 |
| ATCAAATATC | 1.036 ± 0.0086 |
| ATCAACACCG | 1.06 ± 0.034 |
| ATCAACGGTG | 1.01 ± 0.044 |
| ATCAACGTTA | 1.07 ± 0.031 |
| ATCAAGACAG | 1.01 ± 0.033 |
| ATCAAGAGGG | 1.01 ± 0.014 |
| ATCACAGGTT | 1.07 ± 0.0082 |
| ATCACGGGAT | 1.015 ± 0.0039 |
| ATCACTTTAT | 1.38 ± 0.51 |
| ATCAGAATCC | 1.04 ± 0.013 |
| ATCAGACGGG | 1 ± 0.025 |
| ATCAGAGGTG | 1.14 ± 0.0059 |
| ATCAGCGACT | 0.993 ± 0.043 |
| ATCAGGTAAG | 0.9682 ± 0.0024 |
| ATCAGTATAT | 0.992 ± 0.021 |

| Sequence | switch fluorescence ratio |
| --- | --- |
| ATCAGTTGTT | 1.0008 ± 0.00044 |
| ATCATAAGTT | 1.01 ± 0.016 |
| ATCATAATCT | 1.013 ± 0.0034 |
| ATCATACTTG | 1.03 ± 0.029 |
| ATCATATTCG | 0.99 ± 0.02 |
| ATCATCGGGG | 0.988 ± 0.043 |
| ATCATGCCTA | 0.989 ± 0.033 |
| ATCATGTGCG | 1.01 ± 0.033 |
| ATCCAGACGG | 1.04 ± 0.026 |
| ATCCAGGTTG | 1.68 ± 0.11 |
| ATCCATATT | 1.03 ± 0.029 |
| ATCCCCGACC | 1.25 ± 0.063 |
| ATCCGCTTTA | 3.28 ± 0.25 |
| ATCCGGGTGT | 2.74 ± 0.17 |
| ATCCGGTCGC | 1.04 ± 0.029 |
| ATCCGGTCGG | 1.03 ± 0.066 |
| ATCCGTGAGA | 1.05 ± 0.02 |
| ATCCGTGATG | 1.11 ± 0.051 |
| ATCCTCTCGG | 1.05 ± 0.017 |
| ATCCTTGTTG | 0.965 ± 0.027 |
| ATCGACATAT | 1.043 ± 0.0031 |
| ATCGACATTA | 1.01 ± 0.017 |
| ATCGACGTGT | 1.02 ± 0.02 |
| ATCGAGGGA | 0.995 ± 0.061 |
| ATCGAGTAAG | 1.02 ± 0.029 |
| ATCGATGAGG | 0.991 ± 0.058 |

| Sequence | switch fluorescence ratio |
| --- | --- |
| ATCGATTGT | 0.973 ± 0.028 |
| ATCGCAATTG | 1.89 ± 0.36 |
| ATCGCGGGTT | 0.99 ± 0.05 |
| ATCGCGTCGT | 0.995 ± 0.035 |
| ATCGCTATGT | 1.05 ± 0.043 |
| ATCGCTGGGA | 0.972 ± 0.02 |
| ATCGCTTACA | 1.02 ± 0.028 |
| ATCGGAAAG | 1.65 ± 0.92 |
| ATCGGAATGT | 1.012 ± 0.0063 |
| ATCGGAGCCA | 1.02 ± 0.047 |
| ATCGGAGGGC | 1.02 ± 0.013 |
| ATCGGAGGGG | 0.957 ± 0.015 |
| ATCGGAGTTC | 0.989 ± 0.047 |
| ATCGGATATA | 0.989 ± 0.015 |
| ATCGGATGTA | 1.016 ± 0.0084 |
| ATCGGCAGGG | 0.981 ± 0.052 |
| ATCGGGGTAA | 1.04 ± 0.068 |
| ATCGGGTGCG | 0.981 ± 0.022 |
| ATCGGTACGT | 1.03 ± 0.021 |
| ATCGGTATCC | 1.035 ± 0.0064 |
| ATCGGTCCTT | 1.03 ± 0.027 |
| ATCGGTCTGT | 0.975 ± 0.018 |
| ATCGGTCTTG | 1 ± 0.004 |
| ATCGGTTACC | 1.011 ± 0.0045 |
| ATCGTAAAAG | 0.9926 ± 0.0011 |
| ATCGTAGATT | 0.993 ± 0.016 |

| Sequence | switch fluorescence ratio |
| --- | --- |
| ATCGTAGGTT | 0.972 ± 0.015 |
| ATCGTATGGT | 1 ± 0.023 |
| ATCGTATTGT | 0.993 ± 0.03 |
| ATCGTCATGG | 1.01 ± 0.012 |
| ATCGTCGGTA | 1.03 ± 0.017 |
| ATCGTCGGTT | 0.973 ± 0.013 |
| ATCGTGGGAT | 1.01 ± 0.0081 |
| ATCGTTAGAA | 1.006 ± 0.0025 |
| ATCGTTGGCT | 1.04 ± 0.07 |
| ATCTAACGGC | 1.01 ± 0.0079 |
| ATCTAATGCC | 1.01 ± 0.042 |
| ATCTAGTACG | 1.02 ± 0.044 |
| ATCTCCGGGG | 1.04 ± 0.016 |
| ATCTCGCGCA | 1.36 ± 0.11 |
| ATCTCGGGTG | 1.01 ± 0.043 |
| ATCTCTGTAA | 1.264 ± 0.0068 |
| ATCTCTTTTA | 0.954 ± 0.0099 |
| ATCTGAGTAG | 0.999 ± 0.023 |
| ATCTGAGTTG | 0.989 ± 0.031 |
| ATCTGATATT | 1.01 ± 0.033 |
| ATCTGCAACA | 1.62 ± 0.042 |
| ATCTGCTAGG | 1.01 ± 0.031 |
| ATCTGGGGCC | 1.01 ± 0.012 |
| ATCTGGTGCA | 1.055 ± 0.0059 |
| ATCTGTCAAG | 0.9954 ± 0.0058 |
| ATCTTCCAGG | 1.614 ± 0.0089 |

| Sequence | switch fluorescence ratio |
| --- | --- |
| ATCTTCGGGC | 0.9869 ± 0.0065 |
| ATCTTTATAT | 0.994 ± 0.019 |
| ATCTTTGTTG | 0.987 ± 0.018 |
| ATGAAATTGT | 1.02 ± 0.033 |
| ATGAACAGGG | 1.01 ± 0.05 |
| ATGAAGCGGT | 1.04 ± 0.083 |
| ATGAATGGAG | 1.01 ± 0.026 |
| ATGAATGTTA | 1.006 ± 0.0075 |
| ATGAATTCTG | 1.059 ± 0.0049 |
| ATGACAGCGG | 1.01 ± 0.11 |
| ATGACGCTGG | 1.03 ± 0.13 |
| ATGACGGGGT | 1.05 ± 0.085 |
| ATGACGGTAG | 0.97 ± 0.062 |
| ATGAGAACTC | 1.024 ± 0.0051 |
| ATGAGAAGTG | 0.969 ± 0.014 |
| ATGAGCAAGA | 1.49 ± 0.015 |
| ATGAGCCGAG | 0.9983 ± 0.009 |
| ATGAGCTGGG | 0.966 ± 0.015 |
| ATGAGGAGGA | 1.04 ± 0.013 |
| ATGAGGGTCT | 0.999 ± 0.044 |
| ATGAGGGTGC | 0.994 ± 0.054 |
| ATGAGGTTCA | 0.9759 ± 0.0049 |
| ATGAGGTTTC | 0.989 ± 0.016 |
| ATGAGTAAAG | 0.999 ± 0.025 |
| ATGAGTATTG | 0.9888 ± 0.0078 |
| ATGAGTCTAA | 0.992 ± 0.011 |

| Sequence | switch fluorescence ratio |
| --- | --- |
| ATGAGTGGGG | 1.01 ± 0.029 |
| ATGAGTTTTT | 1.01 ± 0.054 |
| ATGATAAAAT | 1.11 ± 0.13 |
| ATGATAAGGG | 0.979 ± 0.013 |
| ATGATACATA | 1.02 ± 0.019 |
| ATGATAGAAC | 1.03 ± 0.015 |
| ATGATATTTT | 0.986 ± 0.027 |
| ATGATCAATT | 1.02 ± 0.049 |
| ATGATGAGTT | 0.986 ± 0.01 |
| ATGATGCGGG | 1.01 ± 0.044 |
| ATGATGTCGG | 1.03 ± 0.033 |
| ATGATTAAGG | 1.015 ± 0.0029 |
| ATGATTAGTT | 1.01 ± 0.046 |
| ATGATTCCTT | 1 ± 0.03 |
| ATGATTTAGG | 0.9998 ± 0.0095 |
| ATGCACACCG | 1.087 ± 0.0016 |
| ATGCACGGAA | 1.05 ± 0.036 |
| ATGCACTGGT | 1.01 ± 0.026 |
| ATGCAGATTA | 1.023 ± 0.0051 |
| ATGCAGGCAC | 1.03 ± 0.024 |
| ATGCAGGGCT | 0.962 ± 0.041 |
| ATGCATAGTT | 0.963 ± 0.017 |
| ATGCATGCGT | 1 ± 0.048 |
